According to article doi:10.1101/2021.07.21.453268 (bioRxiv, 2021):

Target: T1, 3HA-Atg13 (S. cerevisiae, UniProt Q06628 1-738, hyper-phosphorylated (sites not given))
T1 sequence (looked up): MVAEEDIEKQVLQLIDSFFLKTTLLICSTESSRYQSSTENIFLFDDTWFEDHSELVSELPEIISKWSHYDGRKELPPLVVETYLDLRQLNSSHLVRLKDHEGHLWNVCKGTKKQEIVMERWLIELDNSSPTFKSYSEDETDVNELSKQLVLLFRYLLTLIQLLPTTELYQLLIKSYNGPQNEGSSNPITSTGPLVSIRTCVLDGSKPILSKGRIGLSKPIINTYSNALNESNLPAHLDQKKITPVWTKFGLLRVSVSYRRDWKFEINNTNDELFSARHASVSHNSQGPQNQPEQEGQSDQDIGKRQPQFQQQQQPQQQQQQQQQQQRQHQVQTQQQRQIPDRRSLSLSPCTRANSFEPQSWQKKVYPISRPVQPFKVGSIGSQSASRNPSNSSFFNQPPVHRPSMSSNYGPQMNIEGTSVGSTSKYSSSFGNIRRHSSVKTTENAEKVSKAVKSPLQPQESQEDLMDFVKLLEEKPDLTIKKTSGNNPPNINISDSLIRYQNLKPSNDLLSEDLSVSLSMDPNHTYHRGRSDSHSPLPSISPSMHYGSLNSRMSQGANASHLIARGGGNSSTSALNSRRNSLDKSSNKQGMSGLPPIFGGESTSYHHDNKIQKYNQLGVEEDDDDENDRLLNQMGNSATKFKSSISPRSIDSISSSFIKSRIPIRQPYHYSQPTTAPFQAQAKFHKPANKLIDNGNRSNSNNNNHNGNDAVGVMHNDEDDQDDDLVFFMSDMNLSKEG
Assay: pull-down

B1: 6His-3FLAG-Cdc14m (enzyme, S. cerevisiae, UniProt Q00684 1-551, looked up)
chain: MRRSVYLDNTIEFLRGRVYLGAYDYTPEDTDELVFFTVEDAIFYNSFHLDFGPMNIGHLYRFAVIFHEILNDPENANKAVVFYSSASTRQRANAACMLCCYMILVQAWTPHQVLQPLAQVDPPFMPFRDAGYSNADFEITIQDVVYGVWRAKEKGLIDLHSFNLESYEKYEHVEFGDFNVLTPDFIAFASPQEDHPKGYLATKSSHLNQPFKSVLNFFANNNVQLVVRLNSHLYNKKHFEDIGIQHLDLIFEDGTCPDLSIVKNFVGAAETIIKRGGKIAVHSKAGLGRTGCLIGAHLIYTYGFTANECIGFLRFIRPGMVVGPQQHWLYLHQNDFREWKYTTRISLKPSEAIGGLYPLISLEEYRLQKKKLKDDKRVAQNNIEGELRDLTMTPPSNGHGALSARNSSQPSTANNGSNSFKSSAVPQTSPGQPRKGQNGSNTIEDINNNRNPTSHANRKVVIESNNSDDESMQDTNGTSNHYPKVSRKKNDISSASSSRMEDNEPSATNINNAADDTILRQLLPKNRRVTSGRRTTSAAGGIRKISGSIKK
B1: binds.
